According to patent US20120027722A1 (MEDICAL RESEARCH COUNCIL, published 2012):
Where a chain is given by its changes, count along the chain named. Read-outs that look alike come from different tables or passages of the source. No end group written: not given here.

Legend:
Peptide D3 [1] = target: T1, Peptide D3; test: peptide ELISA: biotinylated peptide on streptavidin plate, COS7 supernatant, anti-human kappa HRP, OD 655 nm
T1 construct: member of the group m28

E2 peptide B1 [2] = target: T2, E2 peptide B1 (Hepatitis C virus, genotype 2b (Table 5)); test: as above
AP33 mimotope peptide H6 [3] = target: T3, AP33 mimotope peptide H6; test: as above
T3 construct: captured on streptavidin plates; also called mimotope H6; H6 peptide
T3 peptide: VELRNLGGTWRPGSGK-biotin

AP33 mimotope peptide H6 [4] = target: T3, AP33 mimotope peptide H6; test: as above
Peptide D3 [5] = target: T1, Peptide D3; test: as above; remark: listed apart in the source
E2 peptide B1 [6] = target: T2, E2 peptide B1; test: as above; remark: listed apart in the source
E2 peptide C2 [7] = target: T4, E2 peptide C2 (Hepatitis C virus, genotype 1a (Table 5), not fully specified (residue 16, C-terminus)); test: as above
T4 peptide: QLINTNGSWHVNGSGK

AP33 mimotope peptide H6 [8] = target: T3, AP33 mimotope peptide H6; test: as above
Peptide D3 [9] = target: T1, Peptide D3; test: as above; remark: listed apart in the source
E2 peptide B1 [10] = target: T2, E2 peptide B1; test: as above; remark: listed apart in the source
AP33 mimotope peptide H6 [11] = target: T3, AP33 mimotope peptide H6; test: as above
[12] = target: HCV E1E2 glycoproteins, genotype 3a isolate F4/2-35 (on HCVpp) (Hepatitis C virus genotype 3a (F4/2-35)); test: cell-based or functional assay
[13] = target: HCV E1E2 glycoproteins, genotype 2a isolate JFH1 (on HCVpp) (Hepatitis C virus genotype 2a (JFH1), UniProt Q99IB8 192-383; Q99IB8 384-750); test: cell-based or functional assay
[14] = target: HCV E1E2 glycoproteins, isolate 1A20.8 (on HCVpp) (Hepatitis C virus genotype 1 (1A20.8)); test: cell-based or functional assay
[15] = target: HCV E1E2 glycoproteins, isolate 6.5.8 (on HCVpp) (Hepatitis C virus genotype 6 (6.5.8)); test: cell-based or functional assay
[16] = target: HCV E1E2 glycoproteins, isolate 4.21.16 (on HCVpp) (Hepatitis C virus genotype 4 (4.21.16)); test: cell-based or functional assay
[17] = target: HCV E1E2 glycoproteins, isolate 1B5.23 (on HCVpp) (Hepatitis C virus genotype 1 (1B5.23)); test: cell-based or functional assay
[18] = target: HCV E1E2 glycoproteins, isolate 2B1.1 (on HCVpp) (Hepatitis C virus genotype 2 (2B1.1)); test: cell-based or functional assay
[19] = target: HCV E1E2 glycoproteins, isolate 5.15.11 (on HCVpp) (Hepatitis C virus genotype 5 (5.15.11)); test: cell-based or functional assay
[20] = target: HCV E1E2 glycoproteins, isolate 2A2.4 (on HCVpp) (Hepatitis C virus genotype 2 (2A2.4)); test: cell-based or functional assay
[21] = target: T5, soluble HCV E2 truncated at amino acid 661 (sE2661), His-tagged (Hepatitis C virus (isolate )); test: SPR (BIAcore A100), antibody captured on anti-human Fc chip, sE2 injected 1.56-50 nM, 1:1 Langmuir fit
T5 construct: extracellular domain; also called soluble E2

[22] = target: HCV E1E2 glycoproteins, genotype 1b (Con1) (Hepatitis C virus genotype 1b (Con1), UniProt Q9WMX2 192-383; Q9WMX2 384-746); test: cell-based or functional assay
[23] = target: HCV E1E2 glycoproteins, genotype 2a (J6) (Hepatitis C virus genotype 2a (J6)); test: cell-based or functional assay
[24] = target: T6, HCV E1E2 heterodimer expressed on the surface of 293T cells (Hepatitis C virus (isolate )); test: Scatchard analysis, 125I-antibody versus unlabeled antibody on E1E2-transfected 293T cells
T6 construct: whole, on cells; also called cell surface expressed E2; E1E2 Scatchard

Peptide D3 [25] = target: T1, Peptide D3; test: peptide ELISA: biotinylated peptide on streptavidin plate, COS7 supernatant, anti-human kappa HRP, OD 655 nm; remark: listed apart in the source
E2 peptide B1 [26] = target: T2, E2 peptide B1; test: as above; remark: listed apart in the source
E2 peptide C2 [27] = target: T4, E2 peptide C2; test: as above
AP33 mimotope peptide H6 [28] = target: T3, AP33 mimotope peptide H6; test: as above
Peptide D3 [29] = target: T1, Peptide D3; test: as above; remark: listed apart in the source
E2 peptide B1 [30] = target: T2, E2 peptide B1; test: as above; remark: listed apart in the source
E2 peptide C2 [31] = target: T4, E2 peptide C2; test: as above
AP33 mimotope peptide H6 [32] = target: T3, AP33 mimotope peptide H6; test: as above
Peptide D3 [33] = target: T1, Peptide D3; test: as above; remark: listed apart in the source
E2 peptide B1 [34] = target: T2, E2 peptide B1; test: as above; remark: listed apart in the source
E2 peptide C2 [35] = target: T4, E2 peptide C2; test: as above
AP33 mimotope peptide H6 [36] = target: T3, AP33 mimotope peptide H6; test: as above
[37] = target: T5, soluble HCV E2 truncated at amino acid …; test: SPR (BIAcore), sE2
[38] = target: T6, HCV E1E2 heterodimer expressed on the …; test: Scatchard analysis, 125I-Fab versus unlabeled Fab on E1E2-transfected 293T cells

B1: humanized AP33 antibody RHb-h/RK2bc (antibody, V domains shown)
VH: QVQLQESGPGLVKPSETLSLTCTVSGDSITSGYWNWIRQPPGRALEYMGYISYSGSTYYNLSLRSRITISRDTSKNQYSLRLSSVTAADTAMYYCALITTTTYAMDYWGQGTTVTVS
VL: EIVLTQSPSSLSASVGDRVTITCRASESVDGYGNSFLHWFQQKPGKAPKLLIYLASNLNSGVPSRFSGSGSRTDFTLTISSLQPEDFATYYCQQNNVDPWTFGQGTKLEIK
notes: also called RHbcdefgh/RK2bc
EC50 (read off the curve) (Peptide D3 [1]): ~0.05 µg/mL | binding result (E2 peptide B1 [2]): no binding (tested: about 1400 ng/ml) | EC50 (read off the curve) (AP33 mimotope peptide H6 [3]): ~0.04 µg/mL | EC50 (read off the curve) (AP33 mimotope peptide H6 [4]): ~0.03 µg/mL

B2: AP33 RH-D/RK2bc (antibody, V domains shown)
VH: B1 VH with M48I
VL: B1 VL
notes: COS7 supernatant
EC50 (read off the curve) (Peptide D3 [5]): ~0.04 µg/mL | binding result (E2 peptide B1 [6]): no binding (tested: about 950 ng/ml) | binding result (E2 peptide C2 [7]): binds | EC50 (read off the curve) (AP33 mimotope peptide H6 [8]): ~0.04 µg/mL

B3: humanized AP33 antibody RH-H/RK2bc (antibody, V domains shown)
VH: B1 VH with L97R
VL: B1 VL
EC50 (read off the curve) (Peptide D3 [9]): ~0.04 µg/mL | binding result (E2 peptide B1 [10]): no binding (tested: about 1000 ng/ml) | EC50 (read off the curve) (AP33 mimotope peptide H6 [11]): ~0.03 µg/mL

B4: humanized AP33 antibody RH-C/RK2b (antibody, V domains shown)
VH: QVQLQESGPGLVKPSETLSLTCTVSGDSITSGYWNWIRQPPGRALEWMGYISYSGSTYYNLSLRSRITISRDTSKNQYSLRLSSVTAADTAMYYCALITTTTYAMDYWGQGTTVTVSS
VL: B1 VL with R72G
notes: also called RH-C antibody
IC50 of HCVpp infection (Huh-7, luciferase) [12]: < 0.41 µg/mL | IC90 of HCVpp infection (Huh-7, luciferase) [12]: 2.15 µg/mL | IC50 of HCVpp infection (Huh-7, luciferase) [13]: 0.64 µg/mL | IC90 of HCVpp infection (Huh-7, luciferase) [13]: 7 µg/mL | IC50 of HCVpp infection (Huh-7, luciferase) [14]: 1.6 µg/mL | IC90 of HCVpp infection (Huh-7, luciferase) [14]: 15 µg/mL | IC50 of HCVpp infection (Huh-7, luciferase) [15]: < 0.41 µg/mL | IC90 of HCVpp infection (Huh-7, luciferase) [15]: 1.8 µg/mL | IC50 of HCVpp infection (Huh-7, luciferase) [16]: < 0.41 µg/mL | IC90 of HCVpp infection (Huh-7, luciferase) [16]: 0.92 µg/mL | IC50 of HCVpp infection (Huh-7, luciferase) [17]: 0.9 µg/mL | IC90 of HCVpp infection (Huh-7, luciferase) [17]: 8.3 µg/mL | IC50 of HCVpp infection (Huh-7, luciferase) [18]: 3 µg/mL | IC90 of HCVpp infection (Huh-7, luciferase) [18]: > 15 µg/mL | IC50 of HCVpp infection (Huh-7, luciferase) [19]: 0.053 µg/mL | IC90 of HCVpp infection (Huh-7, luciferase) [19]: 0.82 µg/mL | IC50 of HCVpp infection (Huh-7, luciferase) [20]: 0.51 µg/mL | IC90 of HCVpp infection (Huh-7, luciferase) [20]: 6 µg/mL | Kd [21]: 3.8 nM | EC50, neutralization of Con1 HCVpp entry (Huh-7.5, luciferase) [22]: 0.511 µg/mL | EC50, neutralization of J6 HCVpp entry (Huh-7.5, luciferase) [23]: 0.793 µg/mL | neutralization of J6 HCVcc infection, fold better than AP33 [23]: ≥ 4.7 fold | Kd [24]: 5 nM

B5: RHb-h/Vl (humanized heavy chain RHb-h with chimeric light chain) (antibody, V domains shown)
VH: B1 VH
VL: NIVLTQSPVSLAVSLGQRATISCRASESVDGYGNSFLHWFQQKPGQPPKLLIYLASNLNSGVPARFSGSGSRTDFTLTIDPVEADDAATYYCQQNNVDPWTFGGGTKLEIK
notes: also called RHb-h/V1
EC50 (read off the curve) (Peptide D3 [25]): ~0.02 µg/mL | binding result (E2 peptide B1 [26]): no binding (tested: about 500 ng/ml) | binding result (E2 peptide C2 [27]): binds | EC50 (read off the curve) (AP33 mimotope peptide H6 [28]): ~0.02 µg/mL

B6: humanized AP33 antibody RH-C/RK2bc (antibody, V domains shown)
VH: B4 VH
VL: B1 VL
EC50 (read off the curve) (Peptide D3 [29]): ~0.05 µg/mL | binding result (E2 peptide B1 [30]): no binding (tested: about 2200 ng/ml) | binding result (E2 peptide C2 [31]): binds | EC50 (read off the curve) (AP33 mimotope peptide H6 [32]): ~0.04 µg/mL

B7: AP33 RH-B/RK2bc (antibody, V domains shown)
VH: B4 VH with T30S, W47Y
VL: B1 VL
notes: COS7 supernatant
binding result (Peptide D3 [33]): binds | binding result (E2 peptide B1 [34]): no binding (tested: about 800 ng/ml) | binding result (E2 peptide C2 [35]): binds | binding result (AP33 mimotope peptide H6 [36]): binds

B8: RH-C/RK2b Fab (Fab, V domains shown)
VH: B4 VH
VL: B1 VL with R72G
notes: also called Fab fragment of RH-C/RK2b
Kd [37]: ~0.5 nM | Kd [38]: 50 nM
